Measurements taken from PMC10786891, “Massively parallel profiling of RNA-targeting CRISPR-Cas13d”.

T1: EsCas13d, nuclease-dead (Eubacterium siraeum, UniProt B0MS50, R295A;H300A;R849A;H854A)
T1 sequence: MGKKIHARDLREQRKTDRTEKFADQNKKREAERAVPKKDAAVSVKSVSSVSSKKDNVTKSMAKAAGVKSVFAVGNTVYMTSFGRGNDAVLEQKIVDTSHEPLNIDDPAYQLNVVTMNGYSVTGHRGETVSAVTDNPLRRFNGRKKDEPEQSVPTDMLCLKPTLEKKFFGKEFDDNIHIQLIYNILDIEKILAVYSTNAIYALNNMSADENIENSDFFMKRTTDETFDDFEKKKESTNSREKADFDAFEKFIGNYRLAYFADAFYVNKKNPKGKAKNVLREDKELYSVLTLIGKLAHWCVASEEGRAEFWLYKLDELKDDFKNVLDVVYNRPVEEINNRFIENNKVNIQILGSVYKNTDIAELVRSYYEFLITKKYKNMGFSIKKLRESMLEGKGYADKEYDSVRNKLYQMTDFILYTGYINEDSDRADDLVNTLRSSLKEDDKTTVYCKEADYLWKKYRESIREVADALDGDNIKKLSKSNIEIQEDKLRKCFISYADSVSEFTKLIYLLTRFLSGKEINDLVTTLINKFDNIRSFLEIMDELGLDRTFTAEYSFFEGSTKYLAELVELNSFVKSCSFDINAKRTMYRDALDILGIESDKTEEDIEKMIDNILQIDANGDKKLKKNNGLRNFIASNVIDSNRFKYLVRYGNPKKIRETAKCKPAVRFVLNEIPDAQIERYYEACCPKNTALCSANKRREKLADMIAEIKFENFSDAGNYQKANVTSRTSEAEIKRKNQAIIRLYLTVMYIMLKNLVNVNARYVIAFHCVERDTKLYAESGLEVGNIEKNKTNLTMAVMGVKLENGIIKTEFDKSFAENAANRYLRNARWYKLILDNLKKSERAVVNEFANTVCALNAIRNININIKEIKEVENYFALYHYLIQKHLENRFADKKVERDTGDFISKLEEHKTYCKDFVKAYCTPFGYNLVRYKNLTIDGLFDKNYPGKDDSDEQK


Target: T1, EsCas13d, nuclease-dead
Test: crRNA (strand 1, pre-loaded); Mg2+; 40 mM Tris-HCl pH 7.5, 150 mM NaCl, 6 mM MgCl2, 1 mM DTT, 0.1% Tween-20, 0.2 mg/ml BSA; 25 C; 10 min per concentration, then washed
Details: tags: His6-TwinStrep-SUMO cleaved; N-terminal SNAP kept (SNAP-Surface 488); label: 3' end held by stalled T7 RNA polymerase

Binder	Kd
target 1 MT 5'PFS GUG 3'PFS CAG (mixed) RNA 1: CACCCGUGCAAAAAUGCAGGGGUCUAAAACUGAGCGGAUAACCUCUCUAUGG RNA 2: GGGAAUGGAUCCACAUCUACGAAUUCGUGCCAUAGAGAGGUUAUCCGCUCACAGAGAUCGGAAGAGCACACGU	22.8 ± 2 nM
target 1 C4U,C7U (mixed) RNA 1: CACCCGUGCAAAAAUGCAGGGGUCUAAAACUGAGCGGAUAACCUCUCUAUGG RNA 2: GGGAAUGGAUCCACAUCUACGAAUUCGUACCAUAGAGAGGUUAUUCGUUCACCGAGAUCGGAAGAGCACACGU	29 ± 5 nM
target 1 MT 5'PFS CCA 3'PFS AUU (mixed) RNA 1: CACCCGUGCAAAAAUGCAGGGGUCUAAAACUGAGCGGAUAACCUCUCUAUGG RNA 2: GGGAAUGGAUCCACAUCUACGAAUUCCCACCAUAGAGAGGUUAUCCGCUCAAUUAGAUCGGAAGAGCACACGU	2.62 ± 0.595 nM
target 1 MT 5'PFS GUG 3'PFS UUG (mixed) RNA 1: CACCCGUGCAAAAAUGCAGGGGUCUAAAACUGAGCGGAUAACCUCUCUAUGG RNA 2: GGGAAUGGAUCCACAUCUACGAAUUCGUGCCAUAGAGAGGUUAUCCGCUCAUUGAGAUCGGAAGAGCACACGU	7.86 ± 0.47 nM
target 1 MT 5'PFS GUG 3'PFS CAA (mixed) RNA 1: CACCCGUGCAAAAAUGCAGGGGUCUAAAACUGAGCGGAUAACCUCUCUAUGG RNA 2: GGGAAUGGAUCCACAUCUACGAAUUCGUGCCAUAGAGAGGUUAUCCGCUCACAAAGAUCGGAAGAGCACACGU	31 ± 4.5 nM
target 1 MT 5'PFS CAG 3'PFS AGC (mixed) RNA 1: CACCCGUGCAAAAAUGCAGGGGUCUAAAACUGAGCGGAUAACCUCUCUAUGG RNA 2: GGGAAUGGAUCCACAUCUACGAAUUCCAGCCAUAGAGAGGUUAUCCGCUCAAGCAGAUCGGAAGAGCACACGU	20.5 ± 9 nM
target 1 MT 5'PFS AAC 3'PFS UUG (mixed) RNA 1: CACCCGUGCAAAAAUGCAGGGGUCUAAAACUGAGCGGAUAACCUCUCUAUGG RNA 2: GGGAAUGGAUCCACAUCUACGAAUUCAACCCAUAGAGAGGUUAUCCGCUCAUUGAGAUCGGAAGAGCACACGU	15.3 ± 3.3 nM
target 1 MT 5'PFS CAA 3'PFS AAU (mixed) RNA 1: CACCCGUGCAAAAAUGCAGGGGUCUAAAACUGAGCGGAUAACCUCUCUAUGG RNA 2: GGGAAUGGAUCCACAUCUACGAAUUCCAACCAUAGAGAGGUUAUCCGCUCAAAUAGAUCGGAAGAGCACACGU	~25.5 nM
target 1 MT 5'PFS AGC 3'PFS CUA (mixed) RNA 1: CACCCGUGCAAAAAUGCAGGGGUCUAAAACUGAGCGGAUAACCUCUCUAUGG RNA 2: GGGAAUGGAUCCACAUCUACGAAUUCAGCCCAUAGAGAGGUUAUCCGCUCACUAAGAUCGGAAGAGCACACGU	13.9 ± 4.8 nM
target 1 MT 5'PFS GUG 3'PFS UUU (mixed) RNA 1: CACCCGUGCAAAAAUGCAGGGGUCUAAAACUGAGCGGAUAACCUCUCUAUGG RNA 2: GGGAAUGGAUCCACAUCUACGAAUUCGUGCCAUAGAGAGGUUAUCCGCUCAUUUAGAUCGGAAGAGCACACGU	9.05 ± 0.495 nM
target 1 MT 5'PFS UCA 3'PFS CGC (mixed) RNA 1: CACCCGUGCAAAAAUGCAGGGGUCUAAAACUGAGCGGAUAACCUCUCUAUGG RNA 2: GGGAAUGGAUCCACAUCUACGAAUUCUCACCAUAGAGAGGUUAUCCGCUCACGCAGAUCGGAAGAGCACACGU	10.8 ± 3.85 nM
target 1 MT 5'PFS AAA 3'PFS AGA (mixed) RNA 1: CACCCGUGCAAAAAUGCAGGGGUCUAAAACUGAGCGGAUAACCUCUCUAUGG RNA 2: GGGAAUGGAUCCACAUCUACGAAUUCAAACCAUAGAGAGGUUAUCCGCUCAAGAAGAUCGGAAGAGCACACGU	33 ± 12.5 nM
target 1 MT 5'PFS UUG 3'PFS UUA (mixed) RNA 1: CACCCGUGCAAAAAUGCAGGGGUCUAAAACUGAGCGGAUAACCUCUCUAUGG RNA 2: GGGAAUGGAUCCACAUCUACGAAUUCUUGCCAUAGAGAGGUUAUCCGCUCAUUAAGAUCGGAAGAGCACACGU	20.1 ± 3.2 nM
target 1 MT 5'PFS GUG 3'PFS CAC (mixed) RNA 1: CACCCGUGCAAAAAUGCAGGGGUCUAAAACUGAGCGGAUAACCUCUCUAUGG RNA 2: GGGAAUGGAUCCACAUCUACGAAUUCGUGCCAUAGAGAGGUUAUCCGCUCACACAGAUCGGAAGAGCACACGU	26.6 ± 2.8 nM
target 1 MT 5'PFS UCA 3'PFS AGU (mixed) RNA 1: CACCCGUGCAAAAAUGCAGGGGUCUAAAACUGAGCGGAUAACCUCUCUAUGG RNA 2: GGGAAUGGAUCCACAUCUACGAAUUCUCACCAUAGAGAGGUUAUCCGCUCAAGUAGAUCGGAAGAGCACACGU	24.6 ± 5.5 nM
target 1 MT 5'PFS GUG 3'PFS UUA (mixed) RNA 1: CACCCGUGCAAAAAUGCAGGGGUCUAAAACUGAGCGGAUAACCUCUCUAUGG RNA 2: GGGAAUGGAUCCACAUCUACGAAUUCGUGCCAUAGAGAGGUUAUCCGCUCAUUAAGAUCGGAAGAGCACACGU	10.6 ± 0.65 nM
target 1 G15C,G17U (mixed) RNA 1: CACCCGUGCAAAAAUGCAGGGGUCUAAAACUGAGCGGAUAACCUCUCUAUGG RNA 2: GGGAAUGGAUCCACAUCUACGAAUUCGUACCAUAUACAGGUUAUCCGCUCACCGAGAUCGGAAGAGCACACGU	90 ± 40 nM
target 1 MT 5'PFS CCA 3'PFS AUA (mixed) RNA 1: CACCCGUGCAAAAAUGCAGGGGUCUAAAACUGAGCGGAUAACCUCUCUAUGG RNA 2: GGGAAUGGAUCCACAUCUACGAAUUCCCACCAUAGAGAGGUUAUCCGCUCAAUAAGAUCGGAAGAGCACACGU	6.1 ± 1.7 nM
target 1 MT 5'PFS GUG 3'PFS GUA (mixed) RNA 1: CACCCGUGCAAAAAUGCAGGGGUCUAAAACUGAGCGGAUAACCUCUCUAUGG RNA 2: GGGAAUGGAUCCACAUCUACGAAUUCGUGCCAUAGAGAGGUUAUCCGCUCAGUAAGAUCGGAAGAGCACACGU	12.2 ± 1.6 nM
target 1 insA 3' of 21,insC 3' of 13 (mixed) RNA 1: CACCCGUGCAAAAAUGCAGGGGUCUAAAACUGAGCGGAUAACCUCUCUAUGG RNA 2: GGGAAUGGAUCCACAUCUACGAAUUCGUACCAAUAGAGAGCGUUAUCCGCUCACCGAGAUCGGAAGAGCACACGU	32 ± 4 nM
target 1 MT 5'PFS GUG 3'PFS UUC (mixed) RNA 1: CACCCGUGCAAAAAUGCAGGGGUCUAAAACUGAGCGGAUAACCUCUCUAUGG RNA 2: GGGAAUGGAUCCACAUCUACGAAUUCGUGCCAUAGAGAGGUUAUCCGCUCAUUCAGAUCGGAAGAGCACACGU	11.6 ± 0.9 nM
target 1 MT 5'PFS CUA 3'PFS ACG (mixed) RNA 1: CACCCGUGCAAAAAUGCAGGGGUCUAAAACUGAGCGGAUAACCUCUCUAUGG RNA 2: GGGAAUGGAUCCACAUCUACGAAUUCCUACCAUAGAGAGGUUAUCCGCUCAACGAGAUCGGAAGAGCACACGU	6.05 ± 1.8 nM
target 1 MT 5'PFS CUA 3'PFS ACC (mixed) RNA 1: CACCCGUGCAAAAAUGCAGGGGUCUAAAACUGAGCGGAUAACCUCUCUAUGG RNA 2: GGGAAUGGAUCCACAUCUACGAAUUCCUACCAUAGAGAGGUUAUCCGCUCAACCAGAUCGGAAGAGCACACGU	5 ± 1.85 nM
target 1 MT 5'PFS CAG 3'PFS AGU (mixed) RNA 1: CACCCGUGCAAAAAUGCAGGGGUCUAAAACUGAGCGGAUAACCUCUCUAUGG RNA 2: GGGAAUGGAUCCACAUCUACGAAUUCCAGCCAUAGAGAGGUUAUCCGCUCAAGUAGAUCGGAAGAGCACACGU	57 ± 22.5 nM
target 1 MT 5'PFS UCA 3'PFS CGG (mixed) RNA 1: CACCCGUGCAAAAAUGCAGGGGUCUAAAACUGAGCGGAUAACCUCUCUAUGG RNA 2: GGGAAUGGAUCCACAUCUACGAAUUCUCACCAUAGAGAGGUUAUCCGCUCACGGAGAUCGGAAGAGCACACGU	52.5 ± 25 nM
target 1 MT 5'PFS CUA 3'PFS ACU (mixed) RNA 1: CACCCGUGCAAAAAUGCAGGGGUCUAAAACUGAGCGGAUAACCUCUCUAUGG RNA 2: GGGAAUGGAUCCACAUCUACGAAUUCCUACCAUAGAGAGGUUAUCCGCUCAACUAGAUCGGAAGAGCACACGU	4.95 ± 1 nM
target 1 MT 5'PFS CCA 3'PFS AUG (mixed) RNA 1: CACCCGUGCAAAAAUGCAGGGGUCUAAAACUGAGCGGAUAACCUCUCUAUGG RNA 2: GGGAAUGGAUCCACAUCUACGAAUUCCCACCAUAGAGAGGUUAUCCGCUCAAUGAGAUCGGAAGAGCACACGU	~8.15 nM
target 1 MT 5'PFS CUA 3'PFS ACA (mixed) RNA 1: CACCCGUGCAAAAAUGCAGGGGUCUAAAACUGAGCGGAUAACCUCUCUAUGG RNA 2: GGGAAUGGAUCCACAUCUACGAAUUCCUACCAUAGAGAGGUUAUCCGCUCAACAAGAUCGGAAGAGCACACGU	9.65 ± 2.5 nM
